Paper PMC3751045

Assays:
Assay in all cases: purified protein
Conditions in all cases: 160 μM NADPH, pH 6.5 phosphate, 40°C, GST fusion
[1] = substrate: O=CC=O
[2] = substrate: O=C[C@@H](O)[C@H](O)CO
[3] = substrate: O=C[C@@H](O)CO
[4] = substrate: CC(=O)C=O

B1: Err1 from T. reesei (GLD1) (Trichoderma reesei) (protein)
chain: MSSGRTVTLNTGYKIPQIGYGTWQAAPGEVGAGVFEALKVGYRHLDLAKVYGNQKEVGEGIKKALAEVPGLKREDIFITSKLWNNSHKPEDVEPALDDTLAELGLDYLDLYLIHWPVAFAPGADLFPKSEDGSEVQLNQNVSIVQTWKAMTELPKSKVRSVGVSNFTIEHLDAVIEATGVVPAVNQIERHPRLPNQPLIDYCAKKGIIITAYSAFGNNTKGLPLLVSSDEVKAVADNLSKKQGKTVTPAQVILAWSQIGGHTVIPKSVTKARIAENFQEVELDDEAIAALNKLGEKPQRFNIPYTYKPRWNINLFNTEEEKAAAHTAVIKL
Km [1]: 102.74 ± 9.76 µM | kcat [1]: 18.8 s⁻¹ | kcat/Km [1]: 183000 M⁻¹ s⁻¹ | Km [2]: 94.07 ± 2.46 µM | kcat [2]: 29 s⁻¹ | kcat/Km [2]: 309000 M⁻¹ s⁻¹ | Km [3]: 158.04 ± 5.00 µM | kcat [3]: 47.9 s⁻¹ | kcat/Km [3]: 303000 M⁻¹ s⁻¹ | Km [4]: 131.86 ± 1.84 µM | kcat [4]: 72.6 s⁻¹ | kcat/Km [4]: 550000 M⁻¹ s⁻¹
